Measured values reported in publication PMC11417369, “DNA sequence and chromatin differentiate sequence-specific transcription factor binding in the human malaria parasite Plasmodium falciparum”.

T1: HDP1 homeodomain-like (Plasmodium falciparum, UniProt Q8IKH4 2990-3078)
T1 sequence: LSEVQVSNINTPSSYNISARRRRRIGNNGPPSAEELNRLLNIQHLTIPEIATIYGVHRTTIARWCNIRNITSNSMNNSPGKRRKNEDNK

T2: SIP2 D1 (Plasmodium falciparum, UniProt C6KSN9 177-235)
T2 sequence: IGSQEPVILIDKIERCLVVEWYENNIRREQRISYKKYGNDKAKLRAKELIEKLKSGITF

B1: GTGCAC_negctrl_site321 (dsDNA)
DNA 1: ACAAAAAATTAATGAGAAATGGAATAATAAGTTATA
DNA 2: TATAACTTATTATTCCATTTCTCATTAATTTTTTGT
B2: GTGCAC_negctrl_site667 (dsDNA)
DNA 1: GTAAGAATATTTATAAATGTATAATTTGTATTATTT
DNA 2: AAATAATACAAATTATACATTTATAAATATTCTTAC
B3: GTGCAC_negctrl_site246 (dsDNA)
DNA 1: TTAATTCTATACATAAATTATGTTTACATAAAGAAT
DNA 2: ATTCTTTATGTAAACATAATTTATGTATAGAATTAA
B4: GTGCAC_negctrl_site715 (dsDNA)
DNA 1: TTTTTTCTTTTATGTGAAATGTAATATTGTTATATA
DNA 2: TATATAACAATATTACATTTCACATAAAAGAAAAAA
B5: GTGCAC_negctrl_site723 (dsDNA)
DNA 1: AGCATTTTAAAAGAAAAAAAAAAAAAAAAAAAAATA
DNA 2: TATTTTTTTTTTTTTTTTTTTTTCTTTTAAAATGCT
B6: GTGCAC_negctrl_site367 (dsDNA)
DNA 1: TTTTAAAAAAAAAAAAAATAAGATAAAATTAAATAA
DNA 2: TTATTTAATTTTATCTTATTTTTTTTTTTTTTAAAA
B7: GTGCAC_negctrl_site227 (dsDNA)
DNA 1: ATAGAATAAATTTTGTCATTTATTCCTTATATATAA
DNA 2: TTATATATAAGGAATAAATGACAAAATTTATTCTAT
B8: GTGCAC_negctrl_site528 (dsDNA)
DNA 1: AAACATCTTTACAACGTCCCTCCTTTTTTATGTACC
DNA 2: GGTACATAAAAAAGGAGGGACGTTGTAAAGATGTTT
B9: GTGCAC_negctrl_site475 (dsDNA)
DNA 1: AGAAATAATATTATTCAAGTATTTATTTAATTTTCA
DNA 2: TGAAAATTAAATAAATACTTGAATAATATTATTTCT
B10: GTGCAC_site10459 (dsDNA)
DNA 1: TTATAAATGTGCGTAGTGCATAAACAAAAAAAAAAT
DNA 2: ATTTTTTTTTTGTTTATGCACTACGCACATTTATAA
B11: GTGCAC_site10021 (dsDNA)
DNA 1: ATAAAATATATATTAGTGCACTAAAGGAAAAAAAAT
DNA 2: ATTTTTTTTCCTTTAGTGCACTAATATATATTTTAT
B12: GTGCAC_negctrl_site656 (dsDNA)
DNA 1: ATTATTTATTTATTTTTTTTTTTTTTCTCTTTTCCT
DNA 2: AGGAAAAGAGAAAAAAAAAAAAAATAAATAAATAAT
B13: GTGCAC_negctrl_site285 (dsDNA)
DNA 1: AAAATATTATTACAGAAACAAAAAGAAAAATATATA
DNA 2: TATATATTTTTCTTTTTGTTTCTGTAATAATATTTT
B14: GTGCAC_negctrl_site519 (dsDNA)
DNA 1: AAAATACATATATATATATATAATATTGTTGTTAAA
DNA 2: TTTAACAACAATATTATATATATATATATGTATTTT
B15: GTGCAC_negctrl_site633 (dsDNA)
DNA 1: AAAAAAATAAAAAATATATAAATAATTAATACATGT
DNA 2: ACATGTATTAATTATTTATATATTTTTTATTTTTTT
B16: GTGCAC_negctrl_site553 (dsDNA)
DNA 1: GGAAAATCTAATCATTTAATATTTATTTATCTAATT
DNA 2: AATTAGATAAATAAATATTAAATGATTAGATTTTCC
B17: GTGCAC_negctrl_site150 (dsDNA)
DNA 1: TTGTAATAAAGAATTAAAAAAAAATATATACAGGTA
DNA 2: TACCTGTATATATTTTTTTTTAATTCTTTATTACAA
B18: GTGCAC_negctrl_site189 (dsDNA)
DNA 1: AACAAATATGATTTTTTATATATTTTTAAATTTGGT
DNA 2: ACCAAATTTAAAAATATATAAAAAATCATATTTGTT

Target: T1, HDP1 homeodomain-like
Assay: gcPBM; about 25 ug protein; PBS, 1% milk, 0.2 mg/ml BSA, salmon testes DNA, 0.03% Triton X-100
Conditions: tags: N-terminal GST (pGEX-4T-1), kept; chain copies: 2; label: surface-attached array probe

| Binder | binding signal |
| --- | --- |
| B1 | 6.32 ln median PBM intensity, better of two orientations |
| B2 | 6.29 ln median PBM intensity, better of two orientations |
| B3 | 6.34 ln median PBM intensity, better of two orientations |
| B4 | 6.24 ln median PBM intensity, better of two orientations |
| B5 | 5.84 ln median PBM intensity, better of two orientations |
| B6 | 6.01 ln median PBM intensity, better of two orientations |
| B7 | 6.37 ln median PBM intensity, better of two orientations |
| B8 | 6.32 ln median PBM intensity, better of two orientations |
| B9 | 5.92 ln median PBM intensity, better of two orientations |
| B10 | 10.2 ln median PBM intensity, better of two orientations |
| B11 | 11.6 ln median PBM intensity, better of two orientations |
| B12 | 6.27 ln median PBM intensity, better of two orientations |
| B13 | 6.37 ln median PBM intensity, better of two orientations |
| B14 | 6.31 ln median PBM intensity, better of two orientations |
| B15 | 6.32 ln median PBM intensity, better of two orientations |
| B16 | 5.78 ln median PBM intensity, better of two orientations |
| B17 | 6.31 ln median PBM intensity, better of two orientations |
| B18 | 5.9 ln median PBM intensity, better of two orientations |

Target: T2, SIP2 D1
Assay: as above
Conditions: tags: N-terminal GST (pGEX-4T-1), kept; label: surface-attached array probe

| Binder | binding signal |
| --- | --- |
| B1 | 6.83 ln median PBM intensity, better of two orientations |
| B2 | 6.8 ln median PBM intensity, better of two orientations |
| B3 | 6.9 ln median PBM intensity, better of two orientations |
| B5 | 6.8 ln median PBM intensity, better of two orientations |
| B6 | 6.6 ln median PBM intensity, better of two orientations |
| B7 | 6.84 ln median PBM intensity, better of two orientations |
| B9 | 6.53 ln median PBM intensity, better of two orientations |
| B10 | 8.72 ln median PBM intensity, better of two orientations |
| B11 | 10.4 ln median PBM intensity, better of two orientations |
| B12 | 6.87 ln median PBM intensity, better of two orientations |
| B13 | 6.76 ln median PBM intensity, better of two orientations |
| B16 | 6.68 ln median PBM intensity, better of two orientations |
| B17 | 6.9 ln median PBM intensity, better of two orientations |
| B18 | 6.75 ln median PBM intensity, better of two orientations |

Target: AP2-I D3 (Plasmodium falciparum, UniProt Q8IJW6 910-1027)
Assay: as above
Conditions: tags: N-terminal GST (pGEX-4T-1), kept; label: surface-attached array probe

| Binder | binding signal |
| --- | --- |
| B1 | 7.2 ln median PBM intensity, better of two orientations |
| B2 | 7.22 ln median PBM intensity, better of two orientations |
| B3 | 7.16 ln median PBM intensity, better of two orientations |
| B4 | 7.2 ln median PBM intensity, better of two orientations |
| B5 | 7.05 ln median PBM intensity, better of two orientations |
| B6 | 6.89 ln median PBM intensity, better of two orientations |
| B7 | 7.14 ln median PBM intensity, better of two orientations |
| B8 | 7.28 ln median PBM intensity, better of two orientations |
| B9 | 6.75 ln median PBM intensity, better of two orientations |
| B10 | 11.5 ln median PBM intensity, better of two orientations |
| B11 | 12.4 ln median PBM intensity, better of two orientations |
| B12 | 6.88 ln median PBM intensity, better of two orientations |
| B13 | 7.1 ln median PBM intensity, better of two orientations |
| B14 | 7.2 ln median PBM intensity, better of two orientations |
| B15 | 7.14 ln median PBM intensity, better of two orientations |
| B16 | 6.76 ln median PBM intensity, better of two orientations |
| B17 | 7.17 ln median PBM intensity, better of two orientations |
| B18 | 7.09 ln median PBM intensity, better of two orientations |
